We go through one substance from PMC4994250.

The target in the experiment is human CASKIN2 SAM1-SAM2 tandem (483-634), G537D/K540E double mutant (human) (UniProt Q8WXE0). In words: AUC; sedimentation velocity, 300 mM NaCl, 20 mM sodium phosphate pH 7.8, 20 °C, 50,000 rpm; 10 and 34 μM loading, Kd fitted from the 34 μM experiment; monomer-dimer equilibrium (dimer to monomers).

For orientation: Kd means the free concentration of one partner at which half of the binding sites on the other are occupied at equilibrium, for simple one-to-one binding.

Consider “human CASKIN2 SAM1-SAM2 tandem (483-634), G537D/K540E double mutant (from UniProt Q8WXE0 483-634) (domain or fragment)”, for which the Kd was found to be 99.8 µM.
